From article PMC5003816 come the findings set out here.

The target in this experiment is ubiquitin conjugates (MEFs). Description: UBQLN2 IP and western blot quantification (primary MEFs). As to conditions: n = 3; read off a plot. (In general: A western blot detects proteins with antibodies after separation by electrophoresis.)

As to “UBQLN2 (mouse, endogenous, wild type) (from UniProt Q9QZM0) mP520T”, the ratio to parent came to 1.4.
